CN116745314A (VIR BIOTECHNOLOGY CO LTD, dated 2023)

Target: purified SARS-CoV-2 RBD (limits of the construct not stated) (SARS-CoV-2, UniProt P0DTC2 331-550)
Assay: told in the legend of the ELISA figure (Fig. 38)

B1: S309-14 (S309 with VH W105F mutation) (antibody, V domains shown)
VH: not shown
VL: EIVLTQSPGTLSLSPGERATLSCRASQTVSSTSLAWYQQKPGQAPRLLIYGASSRATGIPDRFSGSGSGTDFTLTISRLEPEDFAVYYCQQHDTSLTFGGGTKVEIK
B1: binds.
